{"source": "patent US20240117033A1", "about": "(Harvard, published 2024)", "key": {"[1]": {"biological_target": "T1, Mouse Mfsd2a, wild type (endogenous on brain endothelial cells of wildtype mice); stably expressed in HEK293 … (mouse, UniProt Q9DA75 1-534)", "T1 construct": "whole, on cells; also called endogenous Mfsd2a", "T1 sequence (looked up)": "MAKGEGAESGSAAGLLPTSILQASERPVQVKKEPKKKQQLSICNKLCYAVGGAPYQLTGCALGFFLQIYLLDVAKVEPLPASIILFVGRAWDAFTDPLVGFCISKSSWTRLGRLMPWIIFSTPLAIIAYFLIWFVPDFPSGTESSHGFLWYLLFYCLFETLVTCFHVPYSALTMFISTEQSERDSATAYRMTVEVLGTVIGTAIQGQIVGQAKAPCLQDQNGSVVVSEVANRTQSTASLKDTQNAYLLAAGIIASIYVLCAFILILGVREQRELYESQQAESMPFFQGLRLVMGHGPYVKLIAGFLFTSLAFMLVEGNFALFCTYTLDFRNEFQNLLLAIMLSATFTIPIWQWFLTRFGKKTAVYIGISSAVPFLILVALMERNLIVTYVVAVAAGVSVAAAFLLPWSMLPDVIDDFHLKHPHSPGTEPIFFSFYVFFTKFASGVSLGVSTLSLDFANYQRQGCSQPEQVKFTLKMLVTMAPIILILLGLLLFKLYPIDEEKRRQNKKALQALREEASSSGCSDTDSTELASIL", "test": "IV injection into adult mice (10 ug/ml), brain sections stained with fluorescent secondary antibody", "method": "The specificity of the antibody described herein (D1, with CDRs of SEQ ID NOs: 1-6) was tested. IV-injection of D1 antibody or control antibody was IV injected at 10 ug/ml to adult mice. The antibodies were permitted to circulate for 15 minutes, followed by 10 ml PBS perfusion and fixation. Brains were sectioned and stained with fluorescent labeled secondary antibody. […] It specifically binds to the endogenous Mfsd2a that is expressed on the luminal side of the brain endothelial cell plasma membrane in the wildtype mice, absence in the Mfsd2a knockout mice. Control antibody injected animals show no staining."}, "[2]": {"biological_target": "T2, Mus musculus Mfsd2a with a single point mutation (Q67H), purified in LMNG/CHS/GDN detergent (Mus musculus, UniProt Q9DA75 1-534, limits assumed)", "T2 construct": "Membrane transporter expressed in HEK293S cells and purified in detergent; also called mouse Mfsd2a Q67H", "T2 sequence (looked up)": "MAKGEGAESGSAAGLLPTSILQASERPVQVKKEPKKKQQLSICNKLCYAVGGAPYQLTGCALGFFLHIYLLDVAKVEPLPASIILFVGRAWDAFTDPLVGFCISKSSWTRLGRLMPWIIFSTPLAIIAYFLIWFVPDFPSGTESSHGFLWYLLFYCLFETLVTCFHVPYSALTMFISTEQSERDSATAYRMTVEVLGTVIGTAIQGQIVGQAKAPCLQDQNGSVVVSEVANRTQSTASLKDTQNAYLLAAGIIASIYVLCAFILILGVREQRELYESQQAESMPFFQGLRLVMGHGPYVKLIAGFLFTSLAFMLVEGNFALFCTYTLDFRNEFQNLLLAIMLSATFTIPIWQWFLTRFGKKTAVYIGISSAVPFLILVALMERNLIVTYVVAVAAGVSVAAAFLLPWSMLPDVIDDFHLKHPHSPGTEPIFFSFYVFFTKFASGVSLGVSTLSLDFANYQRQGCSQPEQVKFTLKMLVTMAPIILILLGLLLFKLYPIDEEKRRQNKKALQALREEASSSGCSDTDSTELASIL", "test": "cryo-EM of the complex, scFv as fiducial mark", "from_the_text": "Mouse Mfsd2a was over-expressed in HEK293 cells and purified for structural studies. A fortuitous loss-of-function single point mutation Q67H (FIG. 6D) was identified that presumably arrests the transporter in an outward-facing conformation based on its location near the typical extracellular gate area in MFS transporters. It was theorized that this might reduce conformational heterogeneity and selected this variant for structural studies. The purified protein was biochemically stable and appeared monodisperse on size exclusion chromatography (FIG. 6A). To obtain the most homogenous samples for cryo-EM studies, the proteins were screened after being purified under various conditions. Mfsd2a purified in lauryl maltose neopentyl glycol/cholesteryl hemisuccinate/glycol-diosgenin (LMNG/CHS/GDN) detergent mixture was selected for further structural studies as particles appeared to be homogeneous in size and shape. Since Mfsd2a is small in size (59 kDa) with few features outside the micelle, it presents challenges for cryo-EM studies. To aid the particle alignment, we used a single-chain variable fragment (scFv) of antibody that binds to the extracellular side of Mfsd2a as a fiducial mark. This strategy permitted determination of the cryo-EM structure of Mfsd2a at 3.5 Å resolution (FIG. 1B; FIGS. 7A-7F)."}}}
{"binder": "D1 antibody (with CDRs of SEQ ID NOs: 1-6) (antibody, V domains shown) VH: AVTLDESGGGLQTPKGGLSLVCKASGFTFSSYDMAWVRQAPGKGLEWVAGITSTGSYTNYGAAVKGRATISRDNGQSTVRLQLNSLRAEDTATYFCAKSSFGCPYSCWYDIAGSIDAWGHGTEVIVSS VL: ALTQPSSVSANPGETVKITCSGARYGYGWYQQKSPGSALVTLIYANNIRPSAIPSRFSGSKSGSTATLTITGVRAEDEAVYYCGNEDSITYAAFGAGTTLTVL", "values": [{"measurement": "binding result", "setting": "[1]", "value": "binds"}]}
{"binder": "Anti-Mfsd2a scFv (ScFv of SEQ ID NO: 7) (scFv, Isolated by phage display from chickens immunized with lipoparticles containing mouse Mfsd2a; Expressed as an scFv-Fc fusion with a human Fc; the scFv fragment was released by papain cleavage and purified by ion exchange; also called single-chain variable fragment) scFv: QPSSVSANPGETVKITCSGARYGYGWYQQKSPGSALVTLIYANNIRPSAIPSRFSGSKSGSTATLTITGVRAEDEAVYYCGNEDSITYAAFGAGTTLTVLGGSSRSSGGGGSSGGGGSAVTLDESGGGLQTPKGGLSLVCKASGFTFSSYDMAWVRQAPGKGLEWVAGITSTGSYTNYGAAVKGRATISRDNGQSTVRLQLNSLRAEDTATYFCAKSSFGCPYSCWYDIAGSIDAWGHGTEVIVS", "values": [{"measurement": "binding result", "setting": "[2]", "value": "binds"}]}
